Source: the supplement of paper PMC12042874
± gives the uncertainty stated by the source.

Test: amyloid nucleation score (Sup35N fusion, yeast selection) (log enrichment); library NNK2; higher = more nucleation; inactive = no reads after selection
Method in brief: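 Nucleation score is defined as the DiMSum log enrichment of output over input reads, with centring on the mode score of non-aggregating sequences. A minimum of 100 input reads was required for each sequence. Reads came from Illumina sequencing of plasmid inserts from psi-negative yeast expressing Sup35N fused to peptides of 20 random codons, induced with 100 μM copper sulfate for 24 hours and grown 7 days at 30°C on medium lacking adenine and uracil.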

Substance | amyloid nucleation score
DVFVRSRGKGRFMGSRDNWA | 0.76 ± 0.4
DVHRWKIWQASG | 0.901 ± 0.26
DVLALFYSYCALN | 0.049 ± 1.1
DVLCS | 0.626 ± 0.57
DVLIRKWIIWDASNLQWMAI | 0.144 ± 0.36
DVSSPVPGRGQCCVDGCWEF | 6.153 ± 0.059
DVVFFVSYW | 3.86 ± 0.098
DVVILMF | 0.639 ± 0.5
DWCPTCIWRICSHVTQSWSS | 6.325 ± 0.055
DWQCRGLQYQWFGGVWDANV | -0.882 ± 0.64
EAHGSWL | 0.764 ± 0.38
EALKVWERLCRLCSFWSYRK | 7.871 ± 0.039
EAYLDCYRLLFWFLFM | inactive
ECSGEHASVQVSTGLGTDVQ | 2.8 ± 0.065
EEMYRSIARNVVVLNRYCES | -0.468 ± 0.26
EEYCSFKLVHMGRGPAGHSI | 2.58 ± 0.11
EFCMEDQSMSLLWDYY | -0.183 ± 1
EFFFRLMTDPTN | -0.376 ± 0.63
EFFISVSLNWCKTDCYTDPW | -0.407 ± 0.2
EFGDQLSDYNWIVCMLGTYI | -0.904 ± 1.1
EFIAISLSFVPLYRVVSGSG | -0.674 ± 0.79
EFLLNMAYSSGGSWTEVFRV | -0.005 ± 0.63
EFMYGKTARGWFLALTARIF | inactive
EFNCYGWKRRKRRCWGGKCR | 0.726 ± 0.41
EFRGWNI | -0.587 ± 0.79

Substance | amyloid nucleation score
EFWPKELIRSDDSASFNGMS | 0.007 ± 1.1
EFYFSVRPVKLCFGLNVTNN | -0.146 ± 1
EFYPTHDFVQRDRRVTRLRI | 0.524 ± 0.81
EGFMSFPTN | inactive
EGNYFSGIS | -1.2 ± 0.48
EGVVSVRVFKYTGSYG | 0.599 ± 0.8
EGWTWGGRLNKAQILTECVL | 1.49 ± 0.38
EIDQSYVNTSSQQTSIYV | inactive
EIHCPMITMISVGRDSMKFN | 0.996 ± 0.41
EINGY | -0.418 ± 1
EKLRNQFKP | -0.569 ± 1.1
ELQGYSNCGLEIGGTCHRGY | -0.302 ± 0.61
ELRPIHIFKFFT | -0.253 ± 0.4
ELSLTCNGDQLIGMKGGADK | 0.008 ± 0.38
EMDNGDSGTVW | -0.186 ± 0.76
EMNFKALLKGVNGFVWDGVF | 1.43 ± 0.21
ENFRGTFKIRRRCCL | -0.251 ± 0.76
ENGIICR | 0.088 ± 0.49
ENHQCGWGLPLCTVVSR | 6 ± 0.077
ENKPTRDLYSTTR | -1.19 ± 0.54
ENVCCGVGSVYKSMLAAPPW | 10.23 ± 0.056
EPGMKSRSNYMHGTKGEHHR | -0.131 ± 0.45
EQHIDSAMENFSDHDIVMLG | 4.76 ± 0.064
ERHNAELRHPAQYLEFTTLG | 1.38 ± 0.37
ERSCSDIAGYPRPHGVQRNA | 3.01 ± 0.081

Substance | amyloid nucleation score
ESDSWNVVITDM | -0.371 ± 0.64
ESFVRVLSFFCVSWYGSMVR | 1.75 ± 0.24
ESIYLVGICGSSG | 0.247 ± 1
ETAQLWYSRVACCKKRVVYG | 0.594 ± 0.47
ETKWPDHYK | 0.515 ± 0.64
ETSMYVYLGI | -0.384 ± 0.35
ETVGYN | 0.284 ± 1.1
EVANGKFCNFGSLYDLMWWE | -0.348 ± 0.76
EVCMWIPHTAVRLYQS | 1.15 ± 0.23
EVEWAFTYHISL | -0.095 ± 0.39
EVGVEGEIF | -0.56 ± 0.4
EVHHNGM | 0.367 ± 0.62
EVILTLIRYNV | 4.21 ± 0.1
EVLGLV | -0.841 ± 0.64
EVRRCGEEFGNGARMRWMGV | 0.923 ± 0.28
EWLAVYVYLHQDGLNNFRS | -0.784 ± 0.4
EWLIAW | 1.29 ± 0.25
EWSVWRSAKWQFQARNGMQG | 2.05 ± 0.48
EYHFCTWFRVDIPFVFHDVV | -0.072 ± 1.1
EYIYTIGYGL | inactive
EYMYYGFYCHYGSSVLAF | -0.731 ± 0.56
FACRWFQSWSLRYLFPELTL | -0.238 ± 0.5
FAFWGVSI | 0.332 ± 0.24
